Assays:
[1] = biological target: His-tagged DVB1, full length, from E. coli (rice (Oryza sativa L.)); experiment: native gel or EMSA; Native-PAGE of the purified His-tagged protein, immunoblot with a His-tag antibody; SDS-PAGE beside it
[2] = biological target: His-tagged DVB1^G90E, full length, from E. coli (rice (Oryza sativa L.)); experiment: as above

| Substance | stoichiometry N [1] | stoichiometry N [2] |
| --- | --- | --- |
| His-tagged DVB1, full length, from E. coli (natural protein) | 2 | – |
| His-tagged DVB1^G90E, full length, from E. coli (natural protein) | – | 2 |

— publication PMC7835275
